{"source": "patent US20240400698A1", "about": "“ANTI-CHEMOKIN LIKE RECEPTOR 1 ANTIBODIES AND THEIR THERAPEUTIC APPLICATIONS” (OSE IMMUNOTHERAPEUTICS, priority 2018, published 2024)", "key": {"[1]": {"system": "C57BI/6 male mice, colitis induced by TNBS", "assay": "Acute inflammatory colitis model induced by TNBS", "type": "in vivo", "details": "FIG. 3, 2G1 10 μg, RvE1 1 μg per mouse i.p.", "procedure": "FIG. 3. […] Mice received 200 μL of the haptenating agent TNBS at 5% in 50% ethanol on day 0 and then were injected with isotype control hIgG1 (10 μg per mouse) (x), RvE1 (1 μg per mouse) daily (•), or 2G1 antibody (10 μg per mouse) three times ( ) for 5 days, or non-treated (wild type animals) (▾). Mice were sacrificed colon length was measured in each condition.\nColitis was induced in 8-10 weeks-old-C57BI/6 male mice by intrarectal injection of 200 μL of the haptenating agent TNBS at 5% in 50% ethanol on day 0. Treatments were injected intra-peritoneally; RvE1 (1 μg per mouse) daily for three days, or 2G1 antibody (10 μg per mouse) twice for 3 days. Colitis follow-up consisting of body weight and stool score (0: normal stool; 4: blood in stool) parameters were performed daily (data not represented). When mice are euthanized, colon length representing the pathology severity was measured."}, "[2]": {"system": "IL-10KO mice, spontaneous colitis", "assay": "IL10-KO spontaneous chronic colitis model", "type": "in vivo", "details": "25 μg/injection i.p., 3 times a week, vs isotype control", "procedure": "FIG. 4. […] Mice KO for IL10 develop a spontaneous inflammatory colitis. They were treated with an Anti-CMKLR1 antibody (2G1) ( ) or isotype control (hIgG1) (x) intra-peritoneally (25 μg/injection, 3 times a week). A. Animal weight loss during and after treatment. B. Animal score stool.\nIL-10KO mice develop a spontaneous colitis from 20 weeks of age mostly due to the absence of regulatory T cells function through IL-10 secretion in the intestine. IL-10KO mice were followed-up three times a week from 18-week old for their weight loss and stool consistency which are clinical hallmarks of this pathology."}, "CT26 cells": {"system": "CT26 cells", "assay": "CT26 colon carcinoma model", "type": "in vivo, mice", "details": "FIG. 9A-C, 20 μg/injection i.p. for 3 weeks", "procedure": "FIG. 9. […] Two mice models were studied, and animals received isotype control antibody (3G8) (x) or anti-CMKLR1 (2G1) ( ) at 20 μg/injection intraperitoneally for 3 weeks. A-C. Results in the CT26 colon carcinoma model comparing single treatment with p84 (A) and 2G1 (B) with combined therapy with both antibodies (C). D: Results in the MC38 colon carcinoma model.\n8-week old C57bl/6J male mice were anesthetized with 3% of isoflurane. Mice were shaved on the flank and MC38 cells (0.5·10^6 cells/mouse) cell lines were injected subcutaneously with an insulinic syringe (30 Gauges) in 50 μL of PBS. Another model was used, in which 8-week old Balb/c male mice were anesthetized with 3% of isoflurane. Mice were shaved on the flank and CT26 cells (1·10^6 cells/mouse) were injected subcutaneously with an insulinic syringe (30 Gauges) in 50 μL of PBS.\nThe agonistic anti-CMKLR1 antibody (2G1) or an anti-SIRPa antibody (p84-anti-mouse SIRPa from Merck Millipore) (SIRPa is a new checkpoint inhibitor) were injected once a week (20 μg/injection) intraperitoneally for 3 weeks starting at d4 after tumor inoculation alone or combined."}, "[3]": {"system": "mice M1 or M2 macrophages", "assay": "Cytokine secretion by mice M1 or M2 macrophages (ELISA), FIG. 15", "type": "cell-based", "details": "ELISA", "procedure": "FIG. 15. Study of the inflammatory cytokine secretion by human macrophages during CMKLR1 activation. After differentiation of human macrophages M1 or M2, cells were incubated in presence of medium, isotype control, anti-CMKLR1 antibodies (H6 and BZ194), C15 peptides, 2G1 anti-CMKLR1 antibody or RvE1. Secretion of IL10, CCL17 and IL12p40 were assessed by ELISA. Cytokines secretion is measured in the supernatant by using an ELISA kit from BD. Supernatant were diluted at 1/10 for IL10 cytokines, 1/50 for CCL17 cytokines and 1/100 for IL12p40 cytokines. A. IL10 cytokine secretion by M2 cells. B. CCL17 cytokine secretion by M2 cells. C. represents IL 12 cytokine secretion by M1 cells.\nBone marrow cells were harvested and cultured in the RPMI medium supplemented with 10% FBS, glutamine and antibiotics containing macrophages colony-stimulating factor (M-CSF) at 100 ng/ml for 5 days inducing the macrophages differentiation. The macrophages were harvested and cultured for 2 days with either IFNg (20 ng/ml) and LPS (100 ng/ml) inducing the M1 polarization or with IL-4 (20 ng/ml) inducing the M2 polarization. Treatments were added during macrophage polarization at 2 μg/ml.\nAfter differentiation of mice M1 or M2 as explain above, cells were incubated in presence of medium, isotype control, anti-CMKLR1 antibodies: clones H6 and BZ194, C15 peptides, 2G1 the anti-CMKLR1 antibody of interest or RvE1 were used. Then the secretion of IL10, CCL17 and IL12p40 was assessed by ELISA. Cytokines secretion was measured in the supernatant using an ELISA kit from BD. Supernatants were diluted at 1/10 for IL10 cytokines, 1/50 for CCL17 cytokines and 1/100 for IL12p40 cytokines.\nCytokines secretion was detected by ELISA according to the BD manufacturer instructions. Briefly, supernatants were diluted in the appropriate buffer and incubated for 2 hours after overnight coating with capture antibody and saturation. […] TMB supplied by BD Bioscience was used as substrate and colorimetric reaction was read with TECAN."}, "[4]": {"system": "Rag1 knock-out mice, CD45Rb high CD4 T cell transfer colitis", "assay": "CD45Rb high T-cell transfer chronic colitis mouse model", "type": "in vivo", "details": "FIG. 21; 1 mg/kg three times a week for 3 weeks from day 32; control mice start to lose weight", "procedure": "Weight variation of treated animals was followed up to sixty days. Animals were treated with isotype control hIgG1 (x) or anti-CMKLR1 antibody (=).\nMethod: CD45Rb^high CD4 T cells were isolated from the spleen of naive mice and sorted on an ARIA FACS after a negative selection of the CD4 T cells by magnetic sorting, then injected intraperitoneally at 0.5·10^6 cells in 100 μL of PBS into 6-weeks old female Rag1 knock-out mice. Anti-CMKLR1 antibody (2G1) or an isotype control were administered from day 32 after the CD45Rb^high CD4 T cell transfer for 3 weeks three times a week at 1 mg/kg. The follow-up of weight was evaluated three times a week and the weight variation was determined over the initial weight. * p<0.05, ** p<0.01."}}, "data": [{"molecule": "2G1: chimeric anti-CMKLR1 antibody, murine variable regions (SEQ ID No: 10 and 17), human IgG1 constant regions; VH-CDR3 variant LI (antibody, V domains shown, human IgG1 constant regions, VH-CDR3 variant LI) VH: METDTLLLWVLLLWVPGSTGDEVQLVASGGGLVQPGGSLKLSCAASGFTFSSYGMSWVRQTPDRRLELVATINRYGGSTYYPDSVKGRFTISRDNAKNTLYLQMSSLKSEDTAMYYCPRLIYYGNEGDSWGQGTTLTVSS VL: METDTLLLWVLLLWVPGSTGDQIVLTQSPAIMSASPGEKVTMTCSASSSVSFMHWYQQKSGTSPKRWIYDTTKLTSGVPARFSGSGSGTFYSLTISSMEAEDAATYYCQQWNSKPPLTFGPGTKLELKR", "values": [{"measurement": "colon length", "setting": "[1]", "value": "the same as normal animal (wt)"}, {"measurement": "percentage of weight loss", "setting": "[2]; FIG. 4A", "value": "lost less weight"}, {"measurement": "score stool", "setting": "[2]; FIG. 4B", "value": "better score stool"}, {"measurement": "tumor development / tumor growth", "setting": "CT26 cells", "value": "did not demonstrate a clinical effect on the tumor development"}, {"measurement": "IL10 secretion by M2 type macrophages", "setting": "[3]; FIG. 15A", "value": "induced"}, {"measurement": "CCL17 secretion by M2 type macrophages", "setting": "[3]; FIG. 15B", "value": "induced"}, {"measurement": "pro-inflammatory cytokines (IL12) from M1 type macrophages", "setting": "[3]; FIG. 15C", "value": "decreased"}, {"measurement": "weight variation", "setting": "[4]", "value": "continue to gain weight"}]}]}
